T1: SIP1 full length in cells (Mus musculus) (UniProt Q9R0G7)
T1 sequence: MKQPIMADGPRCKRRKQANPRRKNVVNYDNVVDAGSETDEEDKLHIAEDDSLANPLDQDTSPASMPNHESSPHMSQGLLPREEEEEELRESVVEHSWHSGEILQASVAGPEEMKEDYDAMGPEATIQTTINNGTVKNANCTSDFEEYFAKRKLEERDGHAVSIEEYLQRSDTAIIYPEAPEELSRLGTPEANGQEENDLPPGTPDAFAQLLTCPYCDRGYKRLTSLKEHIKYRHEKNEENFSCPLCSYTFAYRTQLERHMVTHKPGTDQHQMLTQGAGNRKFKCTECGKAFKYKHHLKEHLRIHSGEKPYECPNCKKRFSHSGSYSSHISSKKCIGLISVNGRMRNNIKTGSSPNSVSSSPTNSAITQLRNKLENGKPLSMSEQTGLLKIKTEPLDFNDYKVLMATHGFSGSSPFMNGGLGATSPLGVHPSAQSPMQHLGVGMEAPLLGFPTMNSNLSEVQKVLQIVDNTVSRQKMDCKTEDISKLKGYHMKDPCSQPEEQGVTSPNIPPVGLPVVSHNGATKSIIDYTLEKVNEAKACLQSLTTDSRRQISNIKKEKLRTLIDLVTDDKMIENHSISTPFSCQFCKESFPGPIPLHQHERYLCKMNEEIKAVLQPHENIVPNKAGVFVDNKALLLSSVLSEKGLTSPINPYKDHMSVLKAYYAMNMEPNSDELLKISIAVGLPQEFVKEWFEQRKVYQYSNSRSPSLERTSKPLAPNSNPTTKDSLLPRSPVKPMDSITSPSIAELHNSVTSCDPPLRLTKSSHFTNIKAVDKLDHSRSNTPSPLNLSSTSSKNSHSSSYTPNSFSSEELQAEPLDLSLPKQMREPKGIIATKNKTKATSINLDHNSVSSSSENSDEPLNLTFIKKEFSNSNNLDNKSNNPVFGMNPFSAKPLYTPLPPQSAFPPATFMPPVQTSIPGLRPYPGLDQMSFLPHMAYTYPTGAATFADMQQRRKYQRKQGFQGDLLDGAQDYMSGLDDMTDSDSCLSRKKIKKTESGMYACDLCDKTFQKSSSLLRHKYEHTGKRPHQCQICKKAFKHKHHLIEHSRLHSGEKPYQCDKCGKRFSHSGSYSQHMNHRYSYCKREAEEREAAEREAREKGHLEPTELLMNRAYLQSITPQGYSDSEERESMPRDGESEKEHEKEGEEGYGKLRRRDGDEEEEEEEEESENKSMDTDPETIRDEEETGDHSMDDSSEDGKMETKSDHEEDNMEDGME

T2: SIP1 full length (SIP1FS) (Mus musculus, UniProt Q9R0G7 Q9R0G7:1-1215)
T2 sequence: T1 sequence

B1: Xbra-WT (dsDNA)
DNA 1: ATCCAGGCCACCTAAAATATAGAATGATAAAGTGACCAGGTGTCAGTTCT
DNA 2: AGAACTGACACCTGGTCACTTTATCATTCTATATTTTAGGTGGCCTGGAT

What was measured:
[1] = biological target: T1, SIP1 full length in cells (Mus musculus); assay: cell_activity; conditions: luciferase reporter in NMe, MDCK, MCF7/AZ
[2] = biological target: T2, SIP1 full length (SIP1FS); assay: EMSA; affinity relative to SIP1CZF, estimated from expression levels; conditions: tags: N-terminal Myc6 (pCS3), COS1 cell extract; label: 32P
Method: The Xbra-WT oligonucleotide covers the region from −344 to −294 of the Xbra2 promoter (16). The region between −412 to −352 of the α4-integrin promoter is present within the α4I-WT oligonucleotide (26). The Ecad-WT probe contains the region between −86 to −17 of the human Ecad promoter (2). Double-stranded oligonucleotides were labeled with [³²P]-γ-ATP and T4 polynucleotide kinase (New England Biolabs). Total cell extracts were prepared from COS1 cells (25) transfected with different pCS3 vectors allowing synthesis of full length SIP1, full length δEF1, and different mutant forms of SIP1 (25), or co-production of equal amounts of Myc-tagged SP1 and FLAG-tagged SIP1. GST-SIP1 fusion proteins were purified from E. coli extract using the GST purification module (Pharmacia), and tested in gel retardation. The DNA binding assay (20 μl) was performed at 25° C., with 1 μg of COS1 total cell protein, 1 μg of poly dI-dC, 10 pg of ³²P-labeled double-stranded oligonucleotide (approx. 10⁴ Cerenkov counts) in the δEF1 binding buffer described previously (30). For supershift experiments, the extracts were incubated with anti-Myc (Santa Cruz) or anti-FLAG (Kodak) antibodies. For competition, an excess of unlabeled double-stranded oligonucleotides was added together with the labeled probe. […]

Molecule | activity (% decrease of promoter activity) [1] | binding signal [2]
E-cadherin promoter reporter | 80 | –
B1 | – | ≥ 50 fold

From patent publication US20050272090, “Nucleic acid binding of multi-zinc finger transcription factors” (published 2005)
